Experimental data from patent publication US20120263675A1 (REGENTS OF THE UNIVERSITY OF MICHIGAN, published 2012).
Square brackets hold non-standard residues; d marks the D form. Ends that are not written are not given here. * marks the point of attachment. 5FAM = O=C1OC2(c3ccc(O)cc3Oc3cc(O)ccc32)c2ccc(C(=O)*)cc21; Abu = CC[C@H](N)C(=O)O

Legend:
[1] = biological target: T1, Human cIAP-1 BIR3-only (residues 253-363) (human, UniProt Q13490 253-363); assay: fluorescence polarization, tracer binding to cIAP-1 BIR3
T1 construct: range 253-363; Cloned into pHis-TEV vector, produced and purified as for XIAP BIR3; also called cIAP-1 BIR3 protein; not shown: tag from pHis-TEV vector
T1 sequence (Q13490 253-363): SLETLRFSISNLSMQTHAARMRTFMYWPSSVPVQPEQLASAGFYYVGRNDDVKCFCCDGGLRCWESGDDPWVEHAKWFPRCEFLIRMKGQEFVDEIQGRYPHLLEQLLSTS

[2] = biological target: T2, Human XIAP BIR3-only (residues 241-356) with N-terminal 6x His tag (human, UniProt P98170 241-356); assay: fluorescence polarization, tracer binding to XIAP BIR3
T2 construct: range 241-356; Recombinant, produced in E. coli BL21(DE3); also called XIAP BIR3 protein; not shown: N-terminal 6x His tag from pET28 vector
T2 sequence (P98170 241-356): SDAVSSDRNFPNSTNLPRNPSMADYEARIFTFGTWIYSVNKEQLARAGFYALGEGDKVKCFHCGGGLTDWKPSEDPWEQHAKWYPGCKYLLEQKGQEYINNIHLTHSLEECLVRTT
From the text: The FP-based assay for XIAP BIR3 protein was described in detail previously (Nikolovska-Coleska et al., Anal. Biochem. 332:261-73 (2004)). Briefly, 5-carboxyfluorescein was coupled to the lysine side chain of a mutated Smac peptide with the sequence (AbuRPFK-Fam) and this fluorescently tagged peptide (named SM5F) was used as the fluorescent tracer in FP-based binding assay to XIAP BIR3.

[3] = biological target: T3, Human cIAP2 BIR3-only (residues 238-349) (human, UniProt Q13489 238-349); assay: fluorescence polarization, tracer binding to cIAP-2 BIR3
T3 construct: range 238-349; Cloned into pHis-TEV vector, produced and purified as for XIAP BIR3; also called cIAP-2 BIR3 protein; not shown: tag from pHis-TEV vector
T3 sequence (Q13489 238-349): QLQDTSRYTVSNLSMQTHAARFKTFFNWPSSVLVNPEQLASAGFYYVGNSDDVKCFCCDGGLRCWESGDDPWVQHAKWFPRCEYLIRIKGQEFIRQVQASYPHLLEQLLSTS

B1: SM5F, fluorescently tagged mutated Smac peptide (AbuRPFK-Fam) (peptide)
peptide: [Abu]RPFK(5FAM)
notes: Mutated Smac N-terminal peptide used as tracer in the FP assays; also called fluorescent tracer
B1 showed a Kd [1] of 4.1 nM, a Kd [2] of 17.9 nM and a Kd [3] of 6.6 nM.
